Data from the RNAGym collection of RNA variant scans (doi:10.1021/acssynbio.7b00057).

B1: Pistol ribozyme (parent)
chain: GGGUCGUUGUUCCAUAAUCGCGUGGAUAUGGCACGCAAGUUUCUACCGGGCACCGUAAAUGUCCGACUGGAGCCGUUCGGGCGGCUAUAAACAGACCUCAGGCCCGAAGCGUGGCGGCACCUGCCGCCGGUGGUAAAAAAGAUCGGAAGAGCACACGUCU

Variants of: B1
Experiment: aptazyme ON/OFF ratio, guanine; higher = stronger switching; co-transcriptional cleavage with and without guanine

| Variant | aptazyme ON/OFF ratio |
| --- | --- |
| GGGUCGAUGAGGGAUAAUCGCGUGGAUAUGGCACGCAAGUUUCUACCGGGCACCGUAAAUGUCCGACUGGAGCCGUUCGGGCGGCUAUAAACAGACCUCAGGCCCGAAGCGUGGCGGCACCUGCCGCCGGUGGUAAAAAAGAUCGGAAGAGCACACGUCU | 1.11 |
| GGGUCGAUGAGGAAUAAUCGCGUGGAUAUGGCACGCAAGUUUCUACCGGGCACCGUAAAUGUCCGACUGGAGCCGUUCGGGCGGCUAUAAACAGACCUCAGGCCCGAAGCGUGGCGGCACCUGCCGCCGGUGGUAAAAAAGAUCGGAAGAGCACACGUCU | 1.06 |
| GGGUCGAUGAGGUAUAAUCGCGUGGAUAUGGCACGCAAGUUUCUACCGGGCACCGUAAAUGUCCGACUGGAGCCGUUCGGGCGGCUAUAAACAGACCUCAGGCCCGAAGCGUGGCGGCACCUGCCGCCGGUGGUAAAAAAGAUCGGAAGAGCACACGUCU | 1.16 |
| GGGUCGAUGCAACAUAAUCGCGUGGAUAUGGCACGCAAGUUUCUACCGGGCACCGUAAAUGUCCGACUGGAGCCGUUCGGGCGGCUAUAAACAGACCUCAGGCCCGAAGCGUGGCGGCACCUGCCGCCGGUGGUAAAAAAGAUCGGAAGAGCACACGUCU | 1.23 |
| GGGUCGAUGCAGCAUAAUCGCGUGGAUAUGGCACGCAAGUUUCUACCGGGCACCGUAAAUGUCCGACUGGAGCCGUUCGGGCGGCUAUAAACAGACCUCAGGCCCGAAGCGUGGCGGCACCUGCCGCCGGUGGUAAAAAAGAUCGGAAGAGCACACGUCU | 1.26 |
| GGGUCGAUGCACCAUAAUCGCGUGGAUAUGGCACGCAAGUUUCUACCGGGCACCGUAAAUGUCCGACUGGAGCCGUUCGGGCGGCUAUAAACAGACCUCAGGCCCGAAGCGUGGCGGCACCUGCCGCCGGUGGUAAAAAAGAUCGGAAGAGCACACGUCU | 1.2 |
| GGGUCGAUGCUAUAUAAUCGCGUGGAUAUGGCACGCAAGUUUCUACCGGGCACCGUAAAUGUCCGACUGGAGCCGUUCGGGCGGCUAUAAACAGACCUCAGGCCCGAAGCGUGGCGGCACCUGCCGCCGGUGGUAAAAAAGAUCGGAAGAGCACACGUCU | 1.21 |
| GGGUCGAUGCUAAAUAAUCGCGUGGAUAUGGCACGCAAGUUUCUACCGGGCACCGUAAAUGUCCGACUGGAGCCGUUCGGGCGGCUAUAAACAGACCUCAGGCCCGAAGCGUGGCGGCACCUGCCGCCGGUGGUAAAAAAGAUCGGAAGAGCACACGUCU | 1.35 |
| GGGUCGAUGCUAGAUAAUCGCGUGGAUAUGGCACGCAAGUUUCUACCGGGCACCGUAAAUGUCCGACUGGAGCCGUUCGGGCGGCUAUAAACAGACCUCAGGCCCGAAGCGUGGCGGCACCUGCCGCCGGUGGUAAAAAAGAUCGGAAGAGCACACGUCU | 1.12 |
| GGGUCGAUGAGAUAUAAUCGCGUGGAUAUGGCACGCAAGUUUCUACCGGGCACCGUAAAUGUCCGACUGGAGCCGUUCGGGCGGCUAUAAACAGACCUCAGGCCCGAAGCGUGGCGGCACCUGCCGCCGGUGGUAAAAAAGAUCGGAAGAGCACACGUCU | 1.17 |
| GGGUCGAUGCUCCAUAAUCGCGUGGAUAUGGCACGCAAGUUUCUACCGGGCACCGUAAAUGUCCGACUGGAGCCGUUCGGGCGGCUAUAAACAGACCUCAGGCCCGAAGCGUGGCGGCACCUGCCGCCGGUGGUAAAAAAGAUCGGAAGAGCACACGUCU | 4.51 |
| GGGUCGAUGAGUGAUAAUCGCGUGGAUAUGGCACGCAAGUUUCUACCGGGCACCGUAAAUGUCCGACUGGAGCCGUUCGGGCGGCUAUAAACAGACCUCAGGCCCGAAGCGUGGCGGCACCUGCCGCCGGUGGUAAAAAAGAUCGGAAGAGCACACGUCU | 1.45 |
| GGGUCGAUGAGUUAUAAUCGCGUGGAUAUGGCACGCAAGUUUCUACCGGGCACCGUAAAUGUCCGACUGGAGCCGUUCGGGCGGCUAUAAACAGACCUCAGGCCCGAAGCGUGGCGGCACCUGCCGCCGGUGGUAAAAAAGAUCGGAAGAGCACACGUCU | 1.35 |
| GGGUCGAUGAGUAAUAAUCGCGUGGAUAUGGCACGCAAGUUUCUACCGGGCACCGUAAAUGUCCGACUGGAGCCGUUCGGGCGGCUAUAAACAGACCUCAGGCCCGAAGCGUGGCGGCACCUGCCGCCGGUGGUAAAAAAGAUCGGAAGAGCACACGUCU | 1.11 |
| GGGUCGAUGAGUCAUAAUCGCGUGGAUAUGGCACGCAAGUUUCUACCGGGCACCGUAAAUGUCCGACUGGAGCCGUUCGGGCGGCUAUAAACAGACCUCAGGCCCGAAGCGUGGCGGCACCUGCCGCCGGUGGUAAAAAAGAUCGGAAGAGCACACGUCU | 1.15 |
| GGGUCGAUGAGGCAUAAUCGCGUGGAUAUGGCACGCAAGUUUCUACCGGGCACCGUAAAUGUCCGACUGGAGCCGUUCGGGCGGCUAUAAACAGACCUCAGGCCCGAAGCGUGGCGGCACCUGCCGCCGGUGGUAAAAAAGAUCGGAAGAGCACACGUCU | 1.45 |
| GGGUCGAUGCAAGAUAAUCGCGUGGAUAUGGCACGCAAGUUUCUACCGGGCACCGUAAAUGUCCGACUGGAGCCGUUCGGGCGGCUAUAAACAGACCUCAGGCCCGAAGCGUGGCGGCACCUGCCGCCGGUGGUAAAAAAGAUCGGAAGAGCACACGUCU | 1.23 |
| GGGUCGAUGCAAUAUAAUCGCGUGGAUAUGGCACGCAAGUUUCUACCGGGCACCGUAAAUGUCCGACUGGAGCCGUUCGGGCGGCUAUAAACAGACCUCAGGCCCGAAGCGUGGCGGCACCUGCCGCCGGUGGUAAAAAAGAUCGGAAGAGCACACGUCU | 1.11 |

| Variant | aptazyme ON/OFF ratio |
| --- | --- |
| GGGUCGAUGCAAAAUAAUCGCGUGGAUAUGGCACGCAAGUUUCUACCGGGCACCGUAAAUGUCCGACUGGAGCCGUUCGGGCGGCUAUAAACAGACCUCAGGCCCGAAGCGUGGCGGCACCUGCCGCCGGUGGUAAAAAAGAUCGGAAGAGCACACGUCU | 1.21 |
| GGGUCGAUGCUACAUAAUCGCGUGGAUAUGGCACGCAAGUUUCUACCGGGCACCGUAAAUGUCCGACUGGAGCCGUUCGGGCGGCUAUAAACAGACCUCAGGCCCGAAGCGUGGCGGCACCUGCCGCCGGUGGUAAAAAAGAUCGGAAGAGCACACGUCU | 1.37 |
| GGGUCGAUGCUGCAUAAUCGCGUGGAUAUGGCACGCAAGUUUCUACCGGGCACCGUAAAUGUCCGACUGGAGCCGUUCGGGCGGCUAUAAACAGACCUCAGGCCCGAAGCGUGGCGGCACCUGCCGCCGGUGGUAAAAAAGAUCGGAAGAGCACACGUCU | 1.42 |
| GGGUCGAUGCUUCAUAAUCGCGUGGAUAUGGCACGCAAGUUUCUACCGGGCACCGUAAAUGUCCGACUGGAGCCGUUCGGGCGGCUAUAAACAGACCUCAGGCCCGAAGCGUGGCGGCACCUGCCGCCGGUGGUAAAAAAGAUCGGAAGAGCACACGUCU | 3.22 |
| GGGUCGAUGCUUGAUAAUCGCGUGGAUAUGGCACGCAAGUUUCUACCGGGCACCGUAAAUGUCCGACUGGAGCCGUUCGGGCGGCUAUAAACAGACCUCAGGCCCGAAGCGUGGCGGCACCUGCCGCCGGUGGUAAAAAAGAUCGGAAGAGCACACGUCU | 1.09 |
| GGGUCGAUGCUUAAUAAUCGCGUGGAUAUGGCACGCAAGUUUCUACCGGGCACCGUAAAUGUCCGACUGGAGCCGUUCGGGCGGCUAUAAACAGACCUCAGGCCCGAAGCGUGGCGGCACCUGCCGCCGGUGGUAAAAAAGAUCGGAAGAGCACACGUCU | 1.16 |
| GGGUCGAUGCUUUAUAAUCGCGUGGAUAUGGCACGCAAGUUUCUACCGGGCACCGUAAAUGUCCGACUGGAGCCGUUCGGGCGGCUAUAAACAGACCUCAGGCCCGAAGCGUGGCGGCACCUGCCGCCGGUGGUAAAAAAGAUCGGAAGAGCACACGUCU | 1.33 |
| GGGUCGAUGAGCGAUAAUCGCGUGGAUAUGGCACGCAAGUUUCUACCGGGCACCGUAAAUGUCCGACUGGAGCCGUUCGGGCGGCUAUAAACAGACCUCAGGCCCGAAGCGUGGCGGCACCUGCCGCCGGUGGUAAAAAAGAUCGGAAGAGCACACGUCU | 1.3 |
| GGGUCGAUGAGCAAUAAUCGCGUGGAUAUGGCACGCAAGUUUCUACCGGGCACCGUAAAUGUCCGACUGGAGCCGUUCGGGCGGCUAUAAACAGACCUCAGGCCCGAAGCGUGGCGGCACCUGCCGCCGGUGGUAAAAAAGAUCGGAAGAGCACACGUCU | 1.31 |
| GGGUCGAUGAGCUAUAAUCGCGUGGAUAUGGCACGCAAGUUUCUACCGGGCACCGUAAAUGUCCGACUGGAGCCGUUCGGGCGGCUAUAAACAGACCUCAGGCCCGAAGCGUGGCGGCACCUGCCGCCGGUGGUAAAAAAGAUCGGAAGAGCACACGUCU | 1.19 |
| GGGUCGAUGCUGAAUAAUCGCGUGGAUAUGGCACGCAAGUUUCUACCGGGCACCGUAAAUGUCCGACUGGAGCCGUUCGGGCGGCUAUAAACAGACCUCAGGCCCGAAGCGUGGCGGCACCUGCCGCCGGUGGUAAAAAAGAUCGGAAGAGCACACGUCU | 1.29 |
| GGGUCGAUGCUGUAUAAUCGCGUGGAUAUGGCACGCAAGUUUCUACCGGGCACCGUAAAUGUCCGACUGGAGCCGUUCGGGCGGCUAUAAACAGACCUCAGGCCCGAAGCGUGGCGGCACCUGCCGCCGGUGGUAAAAAAGAUCGGAAGAGCACACGUCU | 1.28 |
| GGGUCGAUGCUGGAUAAUCGCGUGGAUAUGGCACGCAAGUUUCUACCGGGCACCGUAAAUGUCCGACUGGAGCCGUUCGGGCGGCUAUAAACAGACCUCAGGCCCGAAGCGUGGCGGCACCUGCCGCCGGUGGUAAAAAAGAUCGGAAGAGCACACGUCU | 1.35 |
| GGGUCGAUGCUCGAUAAUCGCGUGGAUAUGGCACGCAAGUUUCUACCGGGCACCGUAAAUGUCCGACUGGAGCCGUUCGGGCGGCUAUAAACAGACCUCAGGCCCGAAGCGUGGCGGCACCUGCCGCCGGUGGUAAAAAAGAUCGGAAGAGCACACGUCU | 1.08 |
| GGGUCGAUGCUCAAUAAUCGCGUGGAUAUGGCACGCAAGUUUCUACCGGGCACCGUAAAUGUCCGACUGGAGCCGUUCGGGCGGCUAUAAACAGACCUCAGGCCCGAAGCGUGGCGGCACCUGCCGCCGGUGGUAAAAAAGAUCGGAAGAGCACACGUCU | 1.06 |
| GGGUCGAUGCUCUAUAAUCGCGUGGAUAUGGCACGCAAGUUUCUACCGGGCACCGUAAAUGUCCGACUGGAGCCGUUCGGGCGGCUAUAAACAGACCUCAGGCCCGAAGCGUGGCGGCACCUGCCGCCGGUGGUAAAAAAGAUCGGAAGAGCACACGUCU | 1.13 |
| GGGUCGAUGCAGAAUAAUCGCGUGGAUAUGGCACGCAAGUUUCUACCGGGCACCGUAAAUGUCCGACUGGAGCCGUUCGGGCGGCUAUAAACAGACCUCAGGCCCGAAGCGUGGCGGCACCUGCCGCCGGUGGUAAAAAAGAUCGGAAGAGCACACGUCU | 1.22 |
| GGGUCGAUGCAGGAUAAUCGCGUGGAUAUGGCACGCAAGUUUCUACCGGGCACCGUAAAUGUCCGACUGGAGCCGUUCGGGCGGCUAUAAACAGACCUCAGGCCCGAAGCGUGGCGGCACCUGCCGCCGGUGGUAAAAAAGAUCGGAAGAGCACACGUCU | 1.26 |
